From patent US10113152B1, “Variant polypeptides capable of aminating aliphatic alpha keto acids” (AbbVie Inc., priority 2014, dated 2018)
Numbering of substitutions follows the chain as printed. Numbers in names are those of the source.

B1: wild-type B. cereus LDH: wild-type B. cereus leucine dehydrogenase, amino acid sequence SEQ ID NO:1 (UniProt P0A392), cell-free extract from E. coli (protein, listed as Bacillus cereus)
chain: MTLEIFEYLEKYDYEQVVFCQDKESGLKAIIAIHDTTLGPALGGTRMWTYDSEEAAIEDALRLAKGMTYKNAAAGLNLGGAKTVIIGDPRKDKSEAMFRALGRYIQGLNGRYITAEDVGTTVDDMDIIHEETDFVTGISPSFGSSGNPSPVTAYGVYRGMKAAAKEAFGTDNLEGKVIAVQGVGNVAYHLCKHLHAEGAKLIVTDINKEAVQRAVEEFGASAVEPNEIYGVECDIYAPCALGATVNDETIPQLKAKVIAGSANNQLKEDRHGDIIHEMGIVYAPDYVINAGGVINVADELYGYNRERALKRVESIYDTIAKVIEISKRDGIATYVAADRLAEERIASLKNSRSTYLRNGHDIISRR
B2: L42V: variant B. cereus leucine dehydrogenase, leucine at position 42 substituted by valine, SEQ ID NO:5 (protein)
chain: B1 chain with L42V
B3: L42G: variant B. cereus leucine dehydrogenase, leucine at position 42 substituted by glycine, SEQ ID NO:6 (protein)
chain: B1 chain with L42G
B4: L42I: variant B. cereus leucine dehydrogenase, leucine at position 42 substituted by isoleucine, SEQ ID NO:4 (protein)
chain: B1 chain with L42I
B5: L42K: variant B. cereus leucine dehydrogenase (SEQ ID NO:1) with lysine at position 42 (protein, listed as Bacillus cereus)
chain: B1 chain with L42K
B6: L42Y: variant B. cereus leucine dehydrogenase (SEQ ID NO:1) with tyrosine at position 42 (protein, listed as Bacillus cereus)
chain: B1 chain with L42Y
B7: L42S: variant B. cereus leucine dehydrogenase (SEQ ID NO:1) with serine at position 42 (protein, listed as Bacillus cereus)
chain: B1 chain with L42S
B8: L42D: variant B. cereus leucine dehydrogenase (SEQ ID NO:1) with aspartic acid at position 42 (protein, listed as Bacillus cereus)
chain: B1 chain with L42D
B9: L42A: variant B. cereus leucine dehydrogenase, leucine at position 42 substituted by alanine, SEQ ID NO:20 (protein)
chain: B1 chain with L42A
B10: L42H: variant B. cereus leucine dehydrogenase (SEQ ID NO:1) with histidine at position 42 (protein, listed as Bacillus cereus)
chain: B1 chain with L42H
B11: L42T: variant B. cereus leucine dehydrogenase (SEQ ID NO:1) with threonine at position 42 (protein, listed as Bacillus cereus)
chain: B1 chain with L42T

Assay: HPLC analysis of the percentage of (S)-enantiomer in the LCAA reaction product
Assay type: biochemical
Conditions: LCAA product of the Example 1 reaction, FIG. 4
Method: (§1) To produce (S)-LCAA from 2-oxonon-8-enoic acid, a reaction was performed under the following conditions. In 200 mL total volume and a buffered pH of 9.5, the aqueous reaction mixture contained 10 mM 2-oxonon-8-enoic acid, 12 mM glucose, 1 mM NAD^+, 50 mg of purified glucose dehydrogenase (GDH-105; Codexis, Redwood City, Calif.), 2 M NH4Cl/OH, and approximately 60 mL/L of purified leucine dehydrogenase cell-free extract. FIG. 2 depicts the reaction scheme for converting 2-oxonon-8-enoic acid to (S)-LCAA using leucine dehydrogenase. The mixture was incubated at 30° C. and with shaking at 150 rpm for four hours.
To determine what percentage of the LCAA reaction product of the reaction was (S)-LCAA, aliquots of the reaction mixture were analyzed using high performance liquid chromatography (HPLC).

Molecule	percentage of the reaction product that was the (S)-enantiomer
B1	greater than 99.5%

Assay: Reductive amination of 2-oxonon-8-enoic acid to (S)-LCAA by leucine dehydrogenase (NADH consumption at 340 nm, HPLC of aliquots)
Assay type: biochemical
Conditions: by four hours; 10 mM 2-oxonon-8-enoic acid, 2 M NH4Cl/OH, pH 9.5, 30° C., GDH/glucose NADH regeneration; FIG. 3
Method: as §1
Enzyme activity was measured spectrophotometrically by monitoring the consumption of NADH in the reductive amination at 340 nm. Activity was defined as the number of micromoles of NADH consumed in 1 minute (μmol min^−1). Aliquots of the reaction mixture were obtained periodically during the course of the reaction and subjected to analysis by high performance liquid chromatography (HPLC).
To increase the affinity of LDH for the 2-oxonon-8-enoic acid substrate and, thus, enhance the enzyme's activity for producing (S)-LCAA, amino acid substitutions were made within the region of LDH that binds to the substrate. Specifically, amino acid substitutions were introduced at position 42 of B. cereus leucine dehydrogenase (SEQ ID NO:1) using standard mutagenesis techniques. Wild-type B. cereus LDH, along with 19 variants (one for each amino acid substitution at position 42) were expressed and isolated as described in Example 1. The enzymatic activity of the variant proteins was evaluated alongside wild-type B. cereus LDH in the reaction described in Example 1. […] While the disclosure is not bound by any particular theory or mechanism of action, the substitutions that increased the enzymatic activity of the LDH enzyme are believed to have increased the depth of the substrate binding pocket in LDH and thereby increased the affinity of LDH for the 2-oxonon-8-enoic acid substrate.

Molecule	conversion of the substrate to LCAA
B1	greater than 99.5%

Same assay, conditions: reaction described in Example 1; conversion of 2-oxonon-8-enoic acid to (S)-LCAA

Molecule	increase in reaction rate relative to wild-type B. cereus LDH
B2	approximately 1×10^3
B3	approximately 1×10^3

Same assay, conditions: reaction described in Example 1; conversion of 2-oxonon-8-enoic acid to (S)-LCAA; FIG. 5

Molecule	enzymatic activity (reaction rate) relative to wild-type B. cereus LDH
B4	significantly enhanced activity
B5	reduced activity
B2	significantly enhanced activity
B6	reduced activity
B7	enhanced activity
B8	reduced activity
B9	enhanced activity
B10	reduced activity
B11	enhanced activity
B3	significantly enhanced activity
